Data: patent US20220112295A1 (Novo Nordisk, published 2022)
Numbering of substitutions follows the chain as printed.

T1: mouse CD30L (mouse, UniProt P32972 68-239, limits assumed)
T1 construct: The form tested is not described
T1 sequence (looked up): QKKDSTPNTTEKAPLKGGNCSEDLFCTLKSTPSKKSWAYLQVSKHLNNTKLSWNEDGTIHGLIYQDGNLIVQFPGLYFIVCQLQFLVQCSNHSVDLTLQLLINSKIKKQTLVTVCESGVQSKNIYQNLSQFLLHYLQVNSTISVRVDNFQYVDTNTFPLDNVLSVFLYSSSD

T2: native human CD30L expressed on Ramos cells (human, UniProt P32971 1-234)
T2 construct: It is used here for the native protein on human B cell lines; also called huCD30L; Native huCD30L
T2 sequence: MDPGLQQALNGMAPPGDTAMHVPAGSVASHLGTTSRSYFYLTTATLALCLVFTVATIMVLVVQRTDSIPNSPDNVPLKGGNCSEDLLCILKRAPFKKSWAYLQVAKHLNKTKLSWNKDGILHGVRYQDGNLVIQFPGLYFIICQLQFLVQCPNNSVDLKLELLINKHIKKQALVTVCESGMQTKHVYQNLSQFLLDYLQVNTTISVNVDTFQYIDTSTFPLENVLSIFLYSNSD

T3: native cynomolgus monkey CD30L on activated T cells (cynomolgus monkey, UniProt A0A7N9CVX7 1-234)
T3 construct: whole, on cells; also called cynomologous CD30L
T3 sequence: T2 sequence with A19T, M20T, G32E, L41F, V75I, K78R, I204V, I227V

B1: Antibody A (antibody, V domains shown)
VH: QVQLQESGPGLVKPSETLSLTCTVSGGSISSYIWSWIRQPAGKGLEWIGRIYASGNTNYNPSLKSRVTMSVDTSKNQFSLKLSSMTAADTAVYYCARDYRVAGTYYYYYGLDVWGQGTTVTVSS
VL: QSALTQPASVSGSPGQSITISCTGTSSDVGVYDYVSWYQQHPGKAPKLMIYEVSNRPSGVSNRFSGSKSGNTASLTISGLQTEDEADYYCSSYTSRSTWVFGGGTKLTVL
notes: Human antibody (XenoMouse); also called mAb A; anti-hCD30L A
B2: Antibody F (antibody, V domains shown)
VH: QVQLQESGPGLVKPSETLSLTCTVSGGSISSYYWSWIRQPAGKGLEWIGRIFASGSTNYNPSLRSRVTMSRDTSKNQFSLKLSSVTAADTAVYYCAKERVGVQDYYHYSGMDVWGQGTTVTVSS
VL: B1 VL with V31L, D33N, H41Q, N55K, K68T, T82A, E83D, Y89S, R96S
notes: also called mAb F
B3: Antibody D (antibody, V domains shown)
VH: QVQLQESGPGLVKPSETLSLTCTVSGGSISSYSWSWIRQPAGKGLEWIGRTSTSGRNNYNPSLKSRVTMSVDTSKNQFSLKLNSVTAADTAVYYCARDFTIAARRYYYYGMDVWGQGTTVTVSS
VL: B1 VL with V29I, V31L, D33N, M49I, S54I, K68E, T82A, D87N, R96S
notes: also called mAb D
B4: Antibody B (antibody, V domains shown)
VH: QVQLQESGPGLVKPSETLSLTCTVSGGSISSYYWTWIRQPAGKGLEWIGRIYTSGITNYNPSLKSRVTMSVDTSKNQFSLKLSSVTAADTAVYYCARERVVGASRYYYYGVDVWGQGTTVTVSS
VL: B1 VL with V31L, D33N, G43D, Y51F, S54N, K68N, T82A, R96S
notes: also called mAb B
B5: Antibody C (antibody, V domains shown)
VH: B4 VH
VL: QSALTQPASVSGSPGQSITISCTGTSSDIGLYDYVSWYQQHPDRAPKLIIFEVNNRPSGVSYRFSGSNSGNTASLTISGLQAEDEADYYCSSYTSSSTWVFGGGTKLTVL
notes: also called mAb C
B6: Antibody E (antibody, V domains shown)
VH: QVQLQESGPRLVKPSETLSLTCTVSGGSITNNYWSWIRQPAGKGLEWIGRVYSSGLTNYKPSLKSRVTMSVDTSKNQFSLRLNSVTAADTAVYYCARERATVTTRYHYDGMDVWGQGTSVTVSS
VL: QSALTQPASVSGSPGQSITISCTGSSSDIGTYNYVSWYQQYPGKAPELMIYEVNNRPSGVSDRFSGSTSGNTASLTISGLQANDEADYYCSSYSSSSTWVFGGGTKLTVL
notes: also called mAb E

Molecular target: T1, mouse CD30L
Assay: not described

Binder | binding result
B1 | no binding
B2 | no binding
B3 | no binding
B4 | no binding
B5 | no binding
B6 | no binding

Molecular target: T2, native human CD30L expressed on Ramos …
Assay: FACS Kd method on Ramos cells, equilibrium, KinExA n-curve analysis
Procedure: Binding affinity of CD30L antibodies to CD30L expressed on Ramos cells were determined by FACS Kd method. The Ramos cells were cultured in RMPI1640 media+10% FBS+L-glut+0.05% azide. Two equilibrium reactions were set up where the antibodies were titrated 1:3 from 60 nM to […] using cell culture media and incubated with two different constant cell concentrations (25000 and 250000 cells). The plates were sealed with parafilm and incubated at 37° C., 20 h, shaking. The equilibrium plates were centrifuged and cell pellets were washed twice with ice cold FACS buffer (1× D-PBS+2% FBS). The cells were then incubated with a secondary antibody goat anti-human Fe Cy5 (Jackson Immuno Research, West Grove, Pa.) and with 7AAD (BD-Biosciences, Rockville, Md.) for 1 h on ice in the dark. Following the incubation, the cells were washed twice with ice-cold FACS buffer before flow cytometry analysis. The GeoMean values of FL4 shift gated on live cell population measure the bound [Ab]. The inverse of the GeoMean values that reflects theoretical free [Ag] in the equilibrium solution was then calculated. The inverse values of the GeoMean read were used in KinExA software for analysis and Kd calculation for each antibody. The free [Ag] measure was plotted against the starting concentration of titrating component and from these plots at two different cell concentrations the Kd was obtained from curve fitting using n-curve analysis in KinExA™ Pro software. The 95% confidence interval is given as Kd low and Kd high.

Binder | Kd [pM]
B1 | 25.5
B2 | 35.8
B3 | 11.9
B4 | 7.43
B5 | 44
B6 | 52.1

Molecular target: T3, native cynomolgus monkey CD30L on …
Assay: FACS, antibody at 50 ug/mL, inhibition of huCD30.Fc-His binding to activated cynomolgus T cells
Procedure: Cynomologous activated T cells were prepared by isolating peripheral blood mononuclear cells (PBMC) from heparinized cynomolgus monkey blood by density centrifugation over Isolymph (2000 rpm. for 20 minutes). PBMC were resuspended in 25 mLs of PBS, added to 300 μl of a 50% solution of 2-Aminoethylisothiouronium bromide (AET)-treated sheep erythrocytes and centrifuged at […] at 4° C. for 10 minutes. Pelleted cells were incubated at 4° C. for a further 20 minutes, gently resuspended and centrifuged over Isolymph. Supernatant was removed down to the T cell/erythrocyte pellet. The pellet was then resuspended in 25 mL of lyses buffer (0.85% ammonium chloride in water) and incubated at 37° C. for 10 minutes. The resultant T cells were pelleted and washed x2 in culture medium (RPMI-1640 medium +10% heat-inactivated fetal bovine serum) and then cultured ([…]) at 37° C. for 18 hr in the presence of 10 ng/mL Phorbol Myristate Acetate (PMA; Sigma Chemicals, St Louis, Mo.) and 500 ng/mL lonornycin (Calbiochem, San Francisco, Calif.). At the end of the culture period, cynomolgus T cells were counted and washed 1× with PBS and incubated with 2% Goat serum, 1% Rabbit serum and 0.1% Human serum in PBS for 30 minutes at […]. Cells were then stained with anti-huCD30L antibodies as described above for human Ramos cells.
The antibodies were also screened for ability to block binding of human CD30L to a soluble human CD30. c molecule. Briefly, human Ramos cells or activated cynomolgus monkey T cells were incubated with anti-CD30L IgGs at 50 μg/mL in blocking buffer for 30 minutes at 4° C. Soluble huCD30. Fc-His was then added at a final concentration of 2.5 ug/mL (30 μL/well) and incubated for 30 minutes at 4° C. Cells were washed ×2 with PBS and incubated with 5 μg/mL of a mouse anti-His monoclonal antibody (30μL/well in blocking buffer) and incubated for 30 minutes at 4° C. After washing ×2 with PBS, cells were incubated with anti-mouse IgG-PE (1:50 in PBS; BD Pharmingen, San Diego, Calif.) for a further 30 minutes at […]. Cells were then washed ×2 with PBS and prepared for FACs analysis.

Binder | % inhibition [%]
B1 | 77
B2 | 97
B3 | 84
B4 | 88
B5 | 83
B6 | 87

Molecular target: T2, native human CD30L expressed on Ramos …
Assay: FACS, native human CD30L on Ramos cells
Procedure: The supernatants were purified and recombinant antibodies were expressed as IgG1 and IgG2 constructs. The antibodies were rescreened for binding to native human and cynomologous monkey CD30L. Briefly, human Burkitt's lymphoma Ramos cells (3×10⁵/well) were incubated in round-bottomed 96-well microtiter plates (Costar® 96 well plate (Corning; Acton, Mass.) with a titration (10 μg/mL to 3.2 ng/mL final concentration) of anti-CD30L IgG antibodies in blocking buffer (PBS containing 0.02% sodium azide, 2% normal goat serum and 1% normal rabbit serum). Human […] fusion protein was included as a positive control for binding. Cells were incubated for 30 minutes at 4° C. then washed ×2 with PBS and incubated for a further 30 minutes at 4° C. with 30 μL/well of anti-hu IgG-biotin (1:50 in blocking buffer; Jackson Immunoresearch, West Grove, Pa.). After washing ×2 with PBS, cells were incubated for 30 minutes at 4° C. with 30 μL/well (1:50 dilution in PBS) of Streptavidin-Phycoerythrin (PE; Molecular Probes, Eugene, Oreg.). Cells were washed 2× with PBS and prepared for FACs analysis.

Binder | EC50 [pM]
B1 | 1700
B2 | 2300
B3 | 3300
B4 | 3100
B5 | 1700
B6 | 3300

Molecular target: T2, native human CD30L expressed on Ramos …
Assay: cell-based or functional assay

Binder | IC50, inhibition of IL-8 release (K299/Ramos dual cell assay) [pM]
B1 | 28
B2 | 60
B3 | 62
B4 | 72
B5 | 36
B6 | 45
